Experimental findings from PMC11002074, “Lysyl oxidase-like 4 promotes the invasiveness of triple-negative breast cancer cells by orchestrating the invasive machinery formed by annexin A2 and S100A11 on the cell surface” (Frontiers in Oncology, 2024) are described below.

The test addresses T1, GST-annexin A2 (human, UniProt P07355 1-339).
T1 construct: annexin A2 (ANXA2), human cDNA cloned into pGEX6P1; also called GST-ANXA2; source: E. coli, purified (glutathione beads)
As to the kind of experiment: far-Western, overlay or dot blot; purified proteins (10 µg) dot-blotted on nitrocellulose in duplicate; incubated with bio-PLG (10 µg) together with S100A11 (10 µg); 1 mM Ca2+, 50 mM Tris-HCl pH 7.4; detected with streptavidin-HRP or anti-S100A11. The following applies: both partners purified.

T1 sequence (P07355 whole entry): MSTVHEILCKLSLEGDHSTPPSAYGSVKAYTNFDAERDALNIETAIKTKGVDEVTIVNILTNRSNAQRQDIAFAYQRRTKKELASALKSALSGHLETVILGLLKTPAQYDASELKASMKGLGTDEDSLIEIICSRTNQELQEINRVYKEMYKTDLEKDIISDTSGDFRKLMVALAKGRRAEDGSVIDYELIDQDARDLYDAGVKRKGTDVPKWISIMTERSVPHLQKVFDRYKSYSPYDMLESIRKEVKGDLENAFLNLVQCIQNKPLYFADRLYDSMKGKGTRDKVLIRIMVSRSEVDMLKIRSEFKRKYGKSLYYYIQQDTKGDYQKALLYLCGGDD

B1: S100A11 (recombinant, GST cleaved) (natural protein, human, UniProt P31949 1-105, looked up)
chain: MAKISSPTETERCIESLIAVFQKYAGKDGYNYTLSKTEFLSFMNTELAAFTKNQKDPGVLDRMMKKLDTNSDGQLDFSEFLNLIGGLAMACHDSFLKAVPSQKRT
notes: S100A11, human cDNA cloned into pGEX6P1; source: E. coli, purified (glutathione beads), GST cleaved by PreScission Protease and removed
Take B1: the binding result is “binds”.
